# Patent publication US20250325675A1, “APTAMER, CONJUGATE, COMPOSITION, METHOD FOR PREPARING SAME, AND USE THEREOF” (priority 2022, published 2025)
# System: U118MG subcutaneous tumor
# Test: In vivo distribution of conjugates with different modifications in U118MG subcutaneous tumor model mice (Experimental Example 6)
# Design: species or system NOD-SCID mice
# Conditions: 3 mg/kg tail vein; 4 h to 24 h after administration
# Protocol: U118MG subcutaneous tumor model mice were prepared according to the method described in experimental Example 4.
# 9 mice were divided into 3 groups (3 mice per group). AP2, AP3 and comparative AP12 solutions were respectively administered to each mouse of each group by tail vein injection. […] The three groups of mice were respectively designated as test group 6A, test group 6B and test group 6C. […] On Day 10 after administration, one mouse of blank control group 6Y and one mouse of test group 6A was respectively euthanized and tumor tissues were taken for fluorescence imaging, and the results are shown in FIG. 5H. In FIGS. 5A-5H, Blank represents blank control group 6Y.
row,Substance,fluorescence intensity in vivo / tumor
1,CY5-CmsUmsGmGmAmGmUmUmCmAmGmAmCmGmUmGmUmUmGmCmUmCmUmUmCmCmGmAmUmCmsUmsCm [AP3],still show high fluorescence intensity
2,CY5-UmCmUmAmUmGmGmCmUmGmCmCmGmAmUmCmUmGmGmUmCmUmCmCmAmUmGmUmAmCmGmUm [AP12],still show high fluorescence intensity
